In assay [1] the target is glucocorticoid receptor (GR), full length. The assay can be described thus: peptide competition of GR binding to GRIP1.
Assay [2] concerns the target hTRβ ligand binding domain (hTRβ LBD), in vitro translated, as used in the GST-GRIP1 binding and peptide competition assays (human) (UniProt P10828). The assay can be described thus: peptide competition (FIG. 11c).
Assay [3] has the same target. The assay can be described thus: titration of the amount of GST-GRIP1 fragment in the pull-down of TR; assigned to the fragment with only NR-box 3 functional.
For assay [4] the target is unchanged. The assay can be described thus: GST-GRIP1 (563-767) mutant pull-down of in vitro translated TR.
Assay [5] has the same target. The assay can be described thus: peptide competition of hTRβ LBD binding to GST-GRIP1 (563-767) beads.
The target is the same in assay [6]. The assay can be described thus: titration of the amount of GST-GRIP1 fragment in the pull-down of TR.
For assay [7] the target is unchanged. The assay can be described thus: titration of the amount of GST-GRIP1 fragment in the pull-down of TR; assigned to the fragment with only NR-box 2 functional.
For assay [8], the target named is GST-GRIP1 (GRIP1 amino acids 563-1121) (mouse) (UniProt Q61026). The assay can be described thus: GST-GRIP1 pull-down of in vitro translated GR.
Assay [9] deals with GRIP1 563-767 His6 GST fusion protein (mouse) (UniProt Q61026). The assay can be described thus: GST-GRIP1 (563-767) pull-down.
Chain of GRIP1 563-767 His6 GST fusion protein (mouse) (Q61026 other isoform, or with tags, fused parts or gaps): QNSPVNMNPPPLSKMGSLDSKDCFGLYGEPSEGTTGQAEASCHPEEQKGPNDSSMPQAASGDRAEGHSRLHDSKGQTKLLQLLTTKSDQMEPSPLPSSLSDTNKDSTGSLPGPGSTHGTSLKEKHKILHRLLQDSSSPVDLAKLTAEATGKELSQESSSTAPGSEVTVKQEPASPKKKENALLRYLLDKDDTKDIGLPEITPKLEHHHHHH
For assay [10], the target named is T1, GRIP1, full-length (mouse, UniProt Q61026 5-1462, limits assumed, [35S]-Met labelled in the pull-down assays (in vitro translated from pSG5-GRIP1)). The assay can be described thus: cell-based or functional assay.
T1 sequence (Q61026 5-1462 limits assumed): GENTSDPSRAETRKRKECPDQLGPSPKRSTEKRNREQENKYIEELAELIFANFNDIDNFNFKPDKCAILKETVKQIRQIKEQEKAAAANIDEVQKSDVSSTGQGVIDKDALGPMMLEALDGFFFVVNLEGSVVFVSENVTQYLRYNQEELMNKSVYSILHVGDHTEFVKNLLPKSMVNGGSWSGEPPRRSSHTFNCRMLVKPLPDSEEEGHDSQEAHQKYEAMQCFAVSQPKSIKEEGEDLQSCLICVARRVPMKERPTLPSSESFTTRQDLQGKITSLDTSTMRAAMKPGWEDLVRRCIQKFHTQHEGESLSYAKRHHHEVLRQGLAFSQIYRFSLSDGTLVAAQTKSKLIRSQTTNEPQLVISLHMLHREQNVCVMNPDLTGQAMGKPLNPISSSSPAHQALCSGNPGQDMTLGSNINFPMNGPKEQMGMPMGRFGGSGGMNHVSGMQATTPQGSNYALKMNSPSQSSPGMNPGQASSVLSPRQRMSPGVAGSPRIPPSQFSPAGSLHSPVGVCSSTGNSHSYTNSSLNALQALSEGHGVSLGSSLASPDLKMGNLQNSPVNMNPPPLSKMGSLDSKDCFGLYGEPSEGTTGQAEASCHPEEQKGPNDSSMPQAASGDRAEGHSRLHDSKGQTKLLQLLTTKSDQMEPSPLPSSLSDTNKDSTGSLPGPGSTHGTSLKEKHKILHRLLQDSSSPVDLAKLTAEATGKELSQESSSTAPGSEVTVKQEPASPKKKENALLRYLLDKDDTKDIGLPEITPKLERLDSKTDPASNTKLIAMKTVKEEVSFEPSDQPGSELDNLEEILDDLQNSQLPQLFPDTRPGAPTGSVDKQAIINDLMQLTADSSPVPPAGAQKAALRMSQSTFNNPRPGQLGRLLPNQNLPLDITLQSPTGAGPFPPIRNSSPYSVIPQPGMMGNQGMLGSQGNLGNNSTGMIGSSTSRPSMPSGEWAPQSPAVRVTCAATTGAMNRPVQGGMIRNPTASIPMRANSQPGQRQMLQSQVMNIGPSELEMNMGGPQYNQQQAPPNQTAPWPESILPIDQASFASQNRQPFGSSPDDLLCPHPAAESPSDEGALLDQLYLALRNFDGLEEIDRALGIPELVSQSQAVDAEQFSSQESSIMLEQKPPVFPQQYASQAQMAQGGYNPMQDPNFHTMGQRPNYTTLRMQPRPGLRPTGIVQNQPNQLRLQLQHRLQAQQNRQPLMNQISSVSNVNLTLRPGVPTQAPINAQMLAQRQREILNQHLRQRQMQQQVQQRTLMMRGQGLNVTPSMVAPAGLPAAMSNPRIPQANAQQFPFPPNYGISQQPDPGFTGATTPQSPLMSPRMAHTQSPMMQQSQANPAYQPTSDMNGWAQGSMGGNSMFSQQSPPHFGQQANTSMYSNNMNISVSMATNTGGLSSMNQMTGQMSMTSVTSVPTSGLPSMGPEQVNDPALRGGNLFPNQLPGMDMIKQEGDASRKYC
The target in assay [11] is T2, Human TRβ LBD (His6-E202-D461), purified, liganded with T3 (human, UniProt P10828 202-461).
T2 construct: range 202-461; Protein of the cocrystal; also called hTRβ LBD; hTR LBD
T2 sequence: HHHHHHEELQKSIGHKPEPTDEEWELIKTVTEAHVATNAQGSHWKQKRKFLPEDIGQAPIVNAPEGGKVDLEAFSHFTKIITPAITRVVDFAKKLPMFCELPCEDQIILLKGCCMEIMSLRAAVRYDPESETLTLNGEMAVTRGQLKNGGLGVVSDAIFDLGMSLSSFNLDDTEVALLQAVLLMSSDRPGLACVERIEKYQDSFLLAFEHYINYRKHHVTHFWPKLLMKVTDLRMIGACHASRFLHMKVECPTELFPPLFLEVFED
The assay can be described thus: cocrystallisation and X-ray structure, 3.6 Å, T3-liganded.
Description: Possible rotation function solutions were calculated using normalized amplitudes in AMORE from a model of hTRβ LBD with the ligand, T₃, omitted; translation function solutions were subsequently determined using TFFC for the two rotation solutions with the highest correlation coefficients. […] After rigid body refinement of the two hTRβ LBD molecules, electron density maps were calculated.

Assay [12] concerns the target T1, GRIP1, full-length. The assay can be described thus: GST-hERα LBD pull-down of 35S-GRIP1, 1 µM DES.
Description: (§1) The wild-type and mutant GST-hERα LBDs were expressed in BL21(DE3) cells. […] Cleared extracts containing the GST-hERα LBDs were incubated in buffer alone (50 mM Tris, pH 7.4, 150 mM NaCl, 2 mM EDTA, 1 mM DTT, 0.5% NP-40 and a protease inhibitor cocktail) or with 1 μM of either DES or OHT for 1 hour at 4° C. Extract samples containing thirty pmol of GST-LBD were then incubated with 10 μl glutathioneSepharose-4B beads (Pharmacia) for 1 hour at 4° C. […] Immobilized GSThERα LBDs were incubated for 2.5 hours with 2.5 μl aliquots of crude translation reaction mixture diluted in 300 μl of Tris-buffered saline (TBS). After five washes in TBS containing 0.05% NP-40, proteins were eluted by boiling the beads for 10 minutes in sample buffer.
For assay [13], the target named is T1, GRIP1, full-length. The assay can be described thus: GST-hERα LBD pull-down of 35S-GRIP1, no ligand or 1 µM OHT.
Description: as §1
Assay [14] addresses T3, hTRβ ligand binding domain (hTRβ LBD), in vitro translated, as used in the GST-GRIP1 binding and peptide … (human, UniProt P10828 202-461, limits assumed, [35S]-methionine labelled (in vitro translated)).
T3 construct: domain: LBD; also called TR LBD; TR-LBD
T3 sequence (looked up): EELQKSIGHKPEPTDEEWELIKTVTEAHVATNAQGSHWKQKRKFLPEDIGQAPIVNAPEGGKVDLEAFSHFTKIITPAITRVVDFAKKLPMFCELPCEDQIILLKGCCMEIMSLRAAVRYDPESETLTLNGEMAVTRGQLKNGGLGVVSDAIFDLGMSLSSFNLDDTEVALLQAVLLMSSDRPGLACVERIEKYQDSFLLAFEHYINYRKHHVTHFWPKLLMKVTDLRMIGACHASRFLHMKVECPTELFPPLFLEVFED
The assay can be described thus: peptide competition of hTRβ LBD binding to GST-GRIP1 (563-767) beads.
Description: Expression was quantified by phosphoimager analysis (BAS2000, Fuji). […] Binding was performed in the binding buffer described above supplemented with 20 μg/ml BSA and appropriate hormone. […] The reaction was incubated at 4° C. under rotation for 2 hours. In case of competition experiments, the appropriate concentration of peptides were added to the reaction before addition of receptors. […] Beads were washed five times with 200 μl binding buffer+BSA at 4° C. before elution of the bound proteins in 20 μl SDS loading buffer. Eluted beads and input labeled protein were subjected to SDS-PAGE. The fraction of bound nuclear receptors was determined by phosphoimager analysis.

Chain of glucocorticoid receptor (GR), full length (P06536 whole entry, the tested form may be a part): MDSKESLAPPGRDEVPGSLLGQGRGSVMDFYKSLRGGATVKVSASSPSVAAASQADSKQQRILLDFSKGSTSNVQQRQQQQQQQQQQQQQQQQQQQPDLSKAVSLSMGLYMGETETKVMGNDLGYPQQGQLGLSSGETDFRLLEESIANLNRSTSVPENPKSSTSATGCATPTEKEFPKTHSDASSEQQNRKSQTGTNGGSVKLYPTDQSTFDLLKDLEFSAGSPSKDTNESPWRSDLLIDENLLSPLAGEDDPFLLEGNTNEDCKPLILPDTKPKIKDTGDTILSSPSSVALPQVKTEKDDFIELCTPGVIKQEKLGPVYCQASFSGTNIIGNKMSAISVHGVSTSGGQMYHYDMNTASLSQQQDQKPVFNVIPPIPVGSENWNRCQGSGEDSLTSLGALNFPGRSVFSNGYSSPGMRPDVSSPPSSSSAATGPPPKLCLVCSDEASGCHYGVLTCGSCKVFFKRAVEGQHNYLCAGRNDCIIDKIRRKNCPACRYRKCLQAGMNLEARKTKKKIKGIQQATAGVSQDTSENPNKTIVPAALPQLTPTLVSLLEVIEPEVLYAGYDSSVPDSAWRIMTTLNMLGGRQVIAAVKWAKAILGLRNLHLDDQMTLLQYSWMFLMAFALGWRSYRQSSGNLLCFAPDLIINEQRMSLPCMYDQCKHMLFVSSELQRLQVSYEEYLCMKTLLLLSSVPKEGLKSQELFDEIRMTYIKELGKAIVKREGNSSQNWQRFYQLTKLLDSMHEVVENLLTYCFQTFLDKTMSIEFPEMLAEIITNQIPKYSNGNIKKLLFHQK

“peptide containing the VP16 binding site (FxxAL motif)”: in [1], the fold weaker binding than a peptide containing NR-box 3 was determined as 10 fold.

In the case of “NR-box 2 peptide with the isoleucine of NR-box 2 replaced by phenylalanine”, the fold reduction of affinity against the NR-box 2 peptide in assay [2] is 10 fold.

Molecule “GST-GRIP1 (563-767) His6 with non-functional NR-box 2 (hydrophobic residues of NR-box 2 replaced with alanine) (from UniProt Q61026 563-767)” showed an EC50 in [3] of 4 µM. In addition, the loss of TR binding in assay [4] was determined as 50%.

Turning to peptide containing GRIP1 NR-box 1, the EC50 in assay [5] came to 130 µM.

Consider “GST-GRIP1 (563-767) His6 with non-functional NR-box 3 (hydrophobic residues of NR-box 3 replaced with alanine) (from UniProt Q61026 563-767)”, for which the fold stronger binding of TR for NR-box 2 over NR-box 3 in [6] was 4 fold. This molecule displayed an EC50 in [7] of 1 µM.

For “glucocorticoid receptor (GR), full length”, the fold increase of binding against GRIP1 (563-767) in assay [8] was 3 fold. Also, in [9], the affinity as a fraction of that of TR is 0.2 fold of TR.

Regarding “peptide containing the p53 binding site (FxxLW motif)”, the fold weaker binding than a peptide containing NR-box 3 in assay [1] turned out to be 10 fold.

B1: human thyroid hormone receptor β1 (hTRβ1), full-length 461 amino acids, wild type (receptor, UniProt P10828 1-461, looked up)
chain: MTPNSMTENGLTAWDKPKHCPDREHDWKLVGMSEACLHRKSHSERRSTLKNEQSSPHLIQTTWTSSIFHLDHDDVNDQSVSSAQTFQTEEKKCKGYIPSYLDKDELCVVCGDKATGYHYRCITCEGCKGFFRRTIQKNLHPSYSCKYEGKCVIDKVTRNQCQECRFKKCIYVGMATDLVLDDSKRLAKRKLIEENREKRRREELQKSIGHKPEPTDEEWELIKTVTEAHVATNAQGSHWKQKRKFLPEDIGQAPIVNAPEGGKVDLEAFSHFTKIITPAITRVVDFAKKLPMFCELPCEDQIILLKGCCMEIMSLRAAVRYDPESETLTLNGEMAVTRGQLKNGGLGVVSDAIFDLGMSLSSFNLDDTEVALLQAVLLMSSDRPGLACVERIEKYQDSFLLAFEHYINYRKHHVTHFWPKLLMKVTDLRMIGACHASRFLHMKVECPTELFPPLFLEVFED
modifications: [35S]-Met labelled (in vitro translated)
Regarding B1, the “T3-dependent reporter gene activity in HeLa cells” value in assay [10] is 5 fold.

B2: GRIP1 NR-box 2 peptide 686-KHKILHRLLQDSS-698 (peptide)
peptide: KHKILHRLLQDSS
notes: also called GRIP1 site 2 peptide
As to B2, the binding result in [11] is on record as “binds”.

B3: GST-hERα LBD (282-595) E542K (receptor)
chain: SAGDMRAANLWPSPLMIKRSKKNSLALSLTADQMVSALLDAEPPILYSEYDPTRPFSEASMMGLLTNLADRELVHMINWAKRVPGFVDLTLHDQVHLLECAWLEILMIGLVWRSMEHPGKLLFAPNLLLDRNQGKCVEGMVEIFDMLLATSSRFRMMNLQGEEFVCLKSIILLNSGVYTFLSSTLKSLEEKDHIHRVLDKITDTLIHLMAKAGLTLQQQHQRLAQLLLILSHIRHMSNKGMEHLYSMKCKNVVPLYDLLLKMLDAHRLHAPTSRGGASVEETDQSHLATAGSTSSHSLQKYYITGEAEGFPATV
notes: not shown: GST carrier (pGEX-3X) at the N end and its linker
Take B3: the binding result in [12] is “no binding”.

B4: GST-hERα LBD (282-595) K362A (receptor)
chain: SAGDMRAANLWPSPLMIKRSKKNSLALSLTADQMVSALLDAEPPILYSEYDPTRPFSEASMMGLLTNLADRELVHMINWAARVPGFVDLTLHDQVHLLECAWLEILMIGLVWRSMEHPGKLLFAPNLLLDRNQGKCVEGMVEIFDMLLATSSRFRMMNLQGEEFVCLKSIILLNSGVYTFLSSTLKSLEEKDHIHRVLDKITDTLIHLMAKAGLTLQQQHQRLAQLLLILSHIRHMSNKGMEHLYSMKCKNVVPLYDLLLEMLDAHRLHAPTSRGGASVEETDQSHLATAGSTSSHSLQKYYITGEAEGFPATV
notes: as for B3
For B4, the binding result in [12] was “no binding”.

B5: GST-hERα LBD (282-595) I358R (receptor)
chain: SAGDMRAANLWPSPLMIKRSKKNSLALSLTADQMVSALLDAEPPILYSEYDPTRPFSEASMMGLLTNLADRELVHMRNWAKRVPGFVDLTLHDQVHLLECAWLEILMIGLVWRSMEHPGKLLFAPNLLLDRNQGKCVEGMVEIFDMLLATSSRFRMMNLQGEEFVCLKSIILLNSGVYTFLSSTLKSLEEKDHIHRVLDKITDTLIHLMAKAGLTLQQQHQRLAQLLLILSHIRHMSNKGMEHLYSMKCKNVVPLYDLLLEMLDAHRLHAPTSRGGASVEETDQSHLATAGSTSSHSLQKYYITGEAEGFPATV
notes: as for B3
On to B5, for which the binding result in [13] is given as “no binding”.

B6: GST-hERα LBD (282-595) L539R (receptor)
chain: SAGDMRAANLWPSPLMIKRSKKNSLALSLTADQMVSALLDAEPPILYSEYDPTRPFSEASMMGLLTNLADRELVHMINWAKRVPGFVDLTLHDQVHLLECAWLEILMIGLVWRSMEHPGKLLFAPNLLLDRNQGKCVEGMVEIFDMLLATSSRFRMMNLQGEEFVCLKSIILLNSGVYTFLSSTLKSLEEKDHIHRVLDKITDTLIHLMAKAGLTLQQQHQRLAQLLLILSHIRHMSNKGMEHLYSMKCKNVVPLYDRLLEMLDAHRLHAPTSRGGASVEETDQSHLATAGSTSSHSLQKYYITGEAEGFPATV
notes: as for B3
Take B6: in assay [13], the binding result is recorded as “no binding”.

B7: GST-hERα LBD (282-595) V376R (receptor)
chain: SAGDMRAANLWPSPLMIKRSKKNSLALSLTADQMVSALLDAEPPILYSEYDPTRPFSEASMMGLLTNLADRELVHMINWAKRVPGFVDLTLHDQRHLLECAWLEILMIGLVWRSMEHPGKLLFAPNLLLDRNQGKCVEGMVEIFDMLLATSSRFRMMNLQGEEFVCLKSIILLNSGVYTFLSSTLKSLEEKDHIHRVLDKITDTLIHLMAKAGLTLQQQHQRLAQLLLILSHIRHMSNKGMEHLYSMKCKNVVPLYDLLLEMLDAHRLHAPTSRGGASVEETDQSHLATAGSTSSHSLQKYYITGEAEGFPATV
notes: as for B3
Regarding B7, the binding result in assay [13] is recorded as “no binding”.

B8: GRIP1 NR-box 3 peptide ENALLRYLLDKDD (peptide)
peptide: ENALLRYLLDKDD
B8: the EC50 in [14] is 4 µM.

B9: GRIP1 NR-box 2 peptide EKHKILHRLLQDS (peptide)
peptide: EKHKILHRLLQDS
notes: also called original NR-box 2 peptide
B9 came in with an EC50 in assay [14] of 1.5 µM.

The term EC50 denotes the concentration needed to bring the measured effect to its halfway point. A lower EC50 goes with higher potency in that assay.

Source of the values: US20060149521A1 (University of California, published 2006).
